For series [1], the target named is ARF3, purified from E. coli, preloaded with BODIPY FL GDP, P61204.
The target of series [2] is T1, RAB5A, N-terminal 6x His-tag, purified from E. coli, preloaded with BODIPY FL GDP, P20339.
T1 chain: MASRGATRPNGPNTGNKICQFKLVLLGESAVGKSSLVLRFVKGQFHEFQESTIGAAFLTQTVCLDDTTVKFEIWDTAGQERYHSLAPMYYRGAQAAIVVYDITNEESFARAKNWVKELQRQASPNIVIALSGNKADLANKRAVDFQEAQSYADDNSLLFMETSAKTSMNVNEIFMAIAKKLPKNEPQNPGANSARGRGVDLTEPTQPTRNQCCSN

The target in series [3] is T2, RAB11A, N-terminal 6x His-tag, purified from E. coli, preloaded with BODIPY FL GDP, P62491.
T2 chain: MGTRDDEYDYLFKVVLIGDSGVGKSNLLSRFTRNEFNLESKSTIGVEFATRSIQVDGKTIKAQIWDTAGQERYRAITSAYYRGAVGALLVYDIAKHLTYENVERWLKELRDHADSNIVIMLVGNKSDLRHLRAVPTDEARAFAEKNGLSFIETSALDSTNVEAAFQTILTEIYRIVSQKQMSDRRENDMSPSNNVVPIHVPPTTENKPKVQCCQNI

These results are taken from patent publication US20180161335.

Sequence of ARF3, purified from E. coli, preloaded with BODIPY FL GDP, P61204 (P61204 whole entry): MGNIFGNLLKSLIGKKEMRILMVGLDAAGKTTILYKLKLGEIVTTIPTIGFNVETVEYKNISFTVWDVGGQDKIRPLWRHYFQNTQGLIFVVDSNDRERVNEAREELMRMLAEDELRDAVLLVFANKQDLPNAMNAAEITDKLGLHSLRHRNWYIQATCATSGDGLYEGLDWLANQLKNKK

B1: C9ORF72 isoform B, 2x HA-tagged, in HEK cell lysate (protein)
chain: MSTLCPPPSPAVAKTEIALSGKSPLLAATFAYWDNILGPRVRHIWAPKTEQVLLSDGEITFLANHTLNGEILRNAESGAIDVKFFVLSEKGVIIVSLIFDGNWNGDRSTYGLSIILPQTELSFYLPLHRVCVDRLTHIIRKGRIWMHKERQENVQKIILEGTERMEDQGQSIIPMLTGEVIPVMELLSSMKSHSVPEEIDIADTVLNDDDIGDSCHEGFLLK
For the protein B1, the “guanine exchange activity (BODIPY-GDP fluorescence)” value (shortened to “guanine exchange activity”) in series [1] was “C9ORF72 isoforms A and B stimulated guanine exchange on ARF3”; with the other GTPases tested it was “Significant activity was not observed using both C9ORF72 isoforms on the other GTPases tested”.

B2: DENND2D, 2x HA-tagged, in HEK cell lysate (protein)
chain: MEGQVVGRVFRLFQRRLLQLRAGPPQDNSGEALKEPERAQEHSLPNFAGGQHFFEYLLVVSLKKKRSEDDYEPIITYQFPKRENLLRGQQEEEERLLKAIPLFCFPDGNEWASLTEYPRETFSFVLTNVDGSRKIGYCRRLLPAGPGPRLPKVYCIISCIGCFGLFSKILDEVEKRHQISMAVIYPFMQGLREAAFPAPGKTVTLKSFIPDSGTEFISLTRPLDSHLEHVDFSSLLHCLSFEQILQIFASAVLERKIIFLAEGLSTLSQCIHAAAALLYPFSWAHTYIPVVPESLLATVCCPTPFMVGVQMRFQQEVMDSPMEEVLLVNLCEGTFLMSVGDEKDILPPKLQDDILDSLGQGINELKTAEQINEHVSGPFVQFFVKIVGHYASYIKREANGQGHFQERSFCKALTSKTNRRFVKKFVKTQLFSLFIQEAEKSKNPPAGYFQQKILEYEEQKKQKKPREKTVK
For B2, the “guanine exchange activity” value in series [2] was “did not display guanine exchange activity on RAB5A”; in series [3], “neither RABEX-5, DENN2D, or DsRed displayed activity on RAB11A”.

B3: RABEX5, 2x HA-tagged, in HEK cell lysate (protein)
chain: MSLKSERRGIHVDQSDLLCKKGCGYYGNPAWQGFCSKCWREEYHKARQKQIQEDWELAERLQREEEEAFASSQSSQGAQSLTFSKFEEKKTNEKTRKVTTVKKFFSASSRVGSKKEIQEAKAPSPSINRQTSIETDRVSKEFIEFLKTFHKTGQEIYKQTKLFLEGMHYKRDLSIEEQSECAQDFYHNVAERMQTRGKVPPERVEKIMDQIEKYIMTRLYKYVFCPETTDDEKKDLAIQKRIRALRWVTPQMLCVPVNEDIPEVSDMVVKAITDIIEMDSKRVPRDKLACITKCSKHIFNAIKITKNEPASADDFLPTLIYIVLKGNPPRLQSNIQYITRFCNPSRLMTGEDGYYFTNLCCAVAFIEKLDAQSLNLSQEDFDRYMSGQTSPRKQEAESWSPDACLGVKQMYKNLDLLSQLNERQERIMNEAKKLEKDLIDWTDGIAREVQDIVEKYPLEIKPPNQPLAAIDSENVENDKLPPPLQPQVYAG
B3: the “guanine exchange activity” value in series [3] is listed as “neither RABEX-5, DENN2D, or DsRed displayed activity on RAB11A”.
